{"source": "patent US20070253967A1", "about": "“Agent for the treatment and/or prophylaxis of microcirculatory disorders” (priority 1997, published 2007)", "biological_target": "T1, fibrinogen (Homo sapiens, UniProt P02675+P02679)", "T1 construct": "then loaded with heparinized plasma (40 ml); from tissue; host or cells: heparinized plasma", "T1 sequence (P02671 20-629 partner limits assumed)": "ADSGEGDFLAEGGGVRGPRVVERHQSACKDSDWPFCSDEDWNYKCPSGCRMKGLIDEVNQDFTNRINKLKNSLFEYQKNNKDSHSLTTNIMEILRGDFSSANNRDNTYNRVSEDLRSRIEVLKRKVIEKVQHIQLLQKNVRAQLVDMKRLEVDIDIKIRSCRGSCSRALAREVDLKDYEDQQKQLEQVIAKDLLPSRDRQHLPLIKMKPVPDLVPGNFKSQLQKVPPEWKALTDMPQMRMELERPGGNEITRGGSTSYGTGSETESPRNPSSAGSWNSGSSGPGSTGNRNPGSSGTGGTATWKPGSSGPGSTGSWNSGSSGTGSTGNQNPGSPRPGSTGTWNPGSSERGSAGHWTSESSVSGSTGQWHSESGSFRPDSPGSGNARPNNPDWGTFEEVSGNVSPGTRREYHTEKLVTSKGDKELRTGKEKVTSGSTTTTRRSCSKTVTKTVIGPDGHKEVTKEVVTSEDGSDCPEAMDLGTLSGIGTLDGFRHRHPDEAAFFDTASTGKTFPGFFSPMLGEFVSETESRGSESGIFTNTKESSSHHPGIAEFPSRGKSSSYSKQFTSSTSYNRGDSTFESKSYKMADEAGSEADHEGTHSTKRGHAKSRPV", "T1 sequence (P02675 31-491)": "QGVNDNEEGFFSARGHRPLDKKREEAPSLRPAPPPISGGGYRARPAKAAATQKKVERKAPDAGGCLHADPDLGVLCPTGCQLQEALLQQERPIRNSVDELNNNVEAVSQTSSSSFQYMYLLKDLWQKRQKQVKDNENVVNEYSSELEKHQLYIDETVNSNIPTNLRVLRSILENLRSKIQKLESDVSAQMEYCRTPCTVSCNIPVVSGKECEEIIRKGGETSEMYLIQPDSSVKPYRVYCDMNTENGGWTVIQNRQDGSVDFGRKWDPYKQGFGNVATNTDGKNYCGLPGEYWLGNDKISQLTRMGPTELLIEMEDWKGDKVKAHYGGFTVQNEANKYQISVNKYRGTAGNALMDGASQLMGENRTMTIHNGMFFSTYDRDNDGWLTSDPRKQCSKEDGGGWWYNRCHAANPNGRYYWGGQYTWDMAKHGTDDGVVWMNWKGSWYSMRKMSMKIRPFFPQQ", "T1 sequence (P02679 27-453)": "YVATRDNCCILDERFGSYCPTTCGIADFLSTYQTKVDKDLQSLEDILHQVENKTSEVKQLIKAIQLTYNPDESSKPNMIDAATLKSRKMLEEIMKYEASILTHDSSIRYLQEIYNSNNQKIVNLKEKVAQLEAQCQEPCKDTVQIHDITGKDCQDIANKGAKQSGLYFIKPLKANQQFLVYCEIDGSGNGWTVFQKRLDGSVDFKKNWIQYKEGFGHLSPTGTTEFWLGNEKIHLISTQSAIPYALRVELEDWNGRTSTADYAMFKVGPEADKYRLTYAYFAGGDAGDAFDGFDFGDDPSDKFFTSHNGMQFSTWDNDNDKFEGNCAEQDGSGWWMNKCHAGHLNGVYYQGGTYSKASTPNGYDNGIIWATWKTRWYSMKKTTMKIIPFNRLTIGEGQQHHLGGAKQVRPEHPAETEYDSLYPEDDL", "assay": "Specifity of the coupled Sepharose by SDS gel electrophoresis", "type": "binding", "details": "statement in the description", "experimental": "The pentapeptide Gly-Pro-Arg-Pro-Lys was synthetized as trifluoracetate and coupled to cyanobromide-active Sepharose CL-4B. The specifity of the coupled Sepharose was tested by means of SDS gel electrophoresis."}
{"substance": "Gly-Pro-Arg-Pro-Lys (GPRPK; printed: Gly-Pro-Arg-Pro-Lys) [pentapeptide ligand for fibrinogen and/or fibrin]", "values": [{"measurement": "specifity for fibrinogen and/or fibrin", "value": "very high specifity"}]}
